Data on 72 sequences can be found in the supplement of paper PMC10567573.

± gives the standard deviation.

The nature of the series: protein stability index of a GFP-peptide fusion (GPS, HEK-293T) (PSI 1-6); higher = more stable.
Setting [1] is: treatment: DMSO, c terminus: a fixed tail appended.
The mark [2] stands for this setting: treatment: MLN4924 1 uM, 8 h, c terminus: a fixed tail appended.
Where [3] appears, read: treatment: DMSO, c terminus: native.
Setting [4] is: treatment: MLN4924 1 uM, 8 h, c terminus: native.
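Note: 24-mer peptide tiles fused after GFP, lentivirally expressed, FACS-sorted into six equal bins by GFP/DsRed ratio, decoded by Illumina sequencing, PSI is the read-weighted mean bin number.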

For the sequence SQYFRSLFSSHPPLGGGVGGQDGL [KLHL14], the protein stability index reads like this: under setting [1], 2.72 ± 0.17; under setting [2], 2.87 ± 0.21.

On to LPSWAELLRPKYRAPQGCSGVDEC [PBXIP1], for which the protein stability index was 2.83 ± 0.11 under setting [1] and 2.69 ± 0.46 under setting [2]. For NQIMPKAGLLIIVLAIIAREGDCA [MAGEA3], in that order: 3.02 ± 0.55 and 3.02 ± 0.76. The corresponding values for RNLYAYIQKLTQIETGENVTGMEL [PTPRD] are 2.41 ± 0.26 and 2.29 ± 0.53. For NEVLSSDILPRWAIIGWLLTTCTS [INTS3], the protein stability index by setting is: under setting [1], 2.99 ± 0.82; under setting [2], 2.91 ± 0.49. The corresponding values for YFSLYCLHQETQLIHVYLPLTSHI [SNX8] are 2.95 ± 0.35 and 2.78 ± 0.32. Regarding PTDRNLCHFQALGCRTTHSNQEVL [PYCR3], the protein stability index was determined as 2.49 ± 0.35 under setting [1] and 2.37 ± 0.22 under setting [2].

The sequence HVLLPVALEFQPQLVLVAAGFDAL [HDAC6] gave a protein stability index under setting [1] of 3.25 ± 0.43 and a protein stability index under setting [2] of 2.78 ± 0.43. For QSILLNTRLQDCYVDSPALTNIWM [C22orf31], in that order: 2.24 ± 0.24 and 2.1 ± 0.36. For KMTLTQVSTWFANARRRLKKENKM [IRX6], in that order: 2.83 ± 0.29 and 3.02 ± 0.23. The corresponding values for LDEGMQIPSTQFDAAHPTNVQRLA [CTNNB1] are 4.73 ± 0.12 and 4.7 ± 0.2.

Consider PVAQSTDAIRGKVGYTRGLHVWQI [SPSB1], for which the protein stability index by setting is: under setting [1], 2.15 ± 0.13; under setting [2], 2.21 ± 0.17.

On to ADVWSLGVMLYTLLVGRYPFHDSD [TRIB1], for which the protein stability index was determined as 3.15 ± 0.26 under setting [1] and 2.58 ± 0.26 under setting [2]. For VEVDAPKSQDLAKIMADIRAQYDE [KRT18], in that order: 4.76 ± 0.12 and 4.71 ± 0.17. Consider MFLEISSYYDPGRLICDFPFDGLL [VPS39], for which, under setting [2], the protein stability index was determined as 3.39 ± 1.3.

Consider SDGFRDCKKGDPKHGKRKRGRPRK [ELF3], for which the protein stability index under setting [1] is 5.18 ± 0.35 and the protein stability index under setting [2] turned out to be 5.22 ± 0.15. The corresponding values for EQLFFVRLVGKTPIETLIRDMLLS [NR2F2] are 2.56 ± 0.47 and 2.42 ± 0.61. For FQKSLVLISKLPYIHFFHTVLKQI [DENND6A], in that order: 2.67 ± 0.72 and 2.42 ± 0.63. For TIYCSLQLQALNRRFQQTQYLALP [DLX1], in that order: 2.53 ± 0.48 and 2.42 ± 0.62. Regarding SESGKLVTKMFQKIQDLIDDKDAL [TRIP13], the protein stability index under setting [1] worked out at 3.43 ± 0.17 and the protein stability index under setting [2] came out at 3.42 ± 0.2. For PDIMNLLIKSGAHFDATNLHKQTA [FEM1C], in that order: 2.39 ± 0.14 and 2.29 ± 0.26. Take YYNVVLLRYQFSRPGPQSVPLQLS [FCHO1]: the protein stability index worked out at 3.13 ± 0.43 under setting [1] and 2.91 ± 0.53 under setting [2].

As for IIYMAILLTHRCLRDEHRCASKYG [DHCR7], the protein stability index is, setting by setting: under setting [1], 2.83 ± 0.75; under setting [2], 2.75 ± 0.81. For GRTGTLIACYVMKHYRFTHAEIIA [CDC14A], in that order: 2.74 ± 0.89 and 3.11 ± 0.45. Turning to FETMAIEIEQLLARLTGVNDKMAE [GOSR1], the protein stability index runs as follows: under setting [1], 3.06 ± 0.2; under setting [2], 3.15 ± 0.38.

As to KEHYLTFEKSRYETYIHLLAMKIK [PSD2], the protein stability index reads like this: under setting [1], 3.28 ± 0.76; under setting [2], 2.73 ± 0.94. In the case of CATTNASGNSCGPCGTSQKGCCN [KRT34], the protein stability index is 3.78 ± 0.17 under setting [3] and 3.66 ± 0.31 under setting [4]. The sequence MEQFCWPHLRSFCETCVGSWSIQM displayed a protein stability index under setting [1] of 2.82 ± 0.44 and a protein stability index under setting [2] of 2.49 ± 0.73. For ALCENFPEEMATYLRYVRRLDFFE [CSNK1G1], in that order: 2.21 ± 0.73 and 2.26 ± 0.26. For KPIVPTDGKRVIVVFHCEFSSERG [CDC25A], in that order: 2.64 ± 0.72 and 2.33 ± 0.28. The corresponding values for QQQRQRPPRPPPRGTPPRRHSFRK [N4BP2L1] are 4.44 ± 0.16 and 4.75 ± 0.26. With IHCENCKTTLGWKYEQAFESSQKY [YPEL3], the protein stability index was found to be 2.36 ± 0.38 under setting [1] and 2.62 ± 0.62 under setting [2]. For DDLQQLQLFTEYGRLAMDEIFQKP [ATL3], in that order: 3.31 ± 0.26 and 3.57 ± 0.21. For GGSGGGSHHHHQSRGACTSHDPQS [KCNA4], in that order: 5.08 ± 0.24 and 5.12 ± 0.33.

For SERPLEDLRLRLDHLGWVARGTGS [RTN2], the protein stability index stood at 2.63 ± 0.53 under setting [1] and 3.2 ± 0.58 under setting [2].

Turning to DKDCSLDCAGSPQKPLCASDGRTF [SMOC2], the protein stability index runs as follows: under setting [1], 4.68 ± 0.39; under setting [2], 4.76 ± 0.34. The corresponding values for SSGRRVSLHCLLDQFDKDLPVYLK [DENND6A] are 2.35 ± 0.45 and 2.4 ± 0.45. The corresponding values for REGALRAALQRSLAAALAQHSVPL [TRADD] are 2.25 ± 0.3 and 2.28 ± 0.2. As to ESTNPEKAHETLHQSLSLASSPKG [CDC25A], the protein stability index is, setting by setting: under setting [1], 5.37 ± 0.37; under setting [2], 5.45 ± 0.27. The corresponding values for QKLLEQTQIIGEQNARLAELERKL [FBXO28] are 4.15 ± 0.082 and 4.24 ± 0.38. As to DLVRLLQNVARIPEFELLWKDIIH [INTS3], the protein stability index was determined as 2.61 ± 0.65 under setting [1] and 2.15 ± 0.19 under setting [2]. The corresponding values for RLVESLSTQIRALTEQQEQLRGQL [RASAL3] are 2.38 ± 0.21 and 2.34 ± 0.26. For EIPIHGNGEARQLPEDDGLEQDLQ [ARFIP2], in that order: 5.04 ± 0.36 and 5.28 ± 0.12. For SSSHQKCPQLGGPEASGGLVQWI [PLEKHN1], the protein stability index was 3.17 ± 0.38 under setting [3] and 3.47 ± 0.26 under setting [4]. Regarding EKFSSSLHELSSRVEASHLTTSQE [FBF1], the protein stability index was found to be 4.99 ± 0.19 under setting [1] and 5.01 ± 0.11 under setting [2].

SRDGATGHVLLTDSEFSMQEPMVP [PPFIA4] had a protein stability index under setting [1] of 4.6 ± 0.27 and a protein stability index under setting [2] of 4.6 ± 0.29. For TSLSLAQVGAKGDTANEIGQVLHF [SERPINB5], in that order: 3.06 ± 0.28 and 3.18 ± 0.37. Regarding SFIKNSDSFDKFEFCEPAFVVGNC [PCMTD1], the protein stability index under setting [1] came to 2.37 ± 0.11 and the protein stability index under setting [2] stood at 2.62 ± 0.22. The corresponding values for CNVDLLKIIQLGLTFMNEQGEYPP [CNOT7] are 2.96 ± 1.3 and 2.48 ± 0.18. For SLENTLTESEARYSSQLSQVQSLI [KRT33B], in that order: 3.05 ± 0.23 and 3.11 ± 0.46. For ESLSSQLSNLQKESRACLERIQEL [LMNB1], the protein stability index by setting is: under setting [1], 4.28 ± 0.14; under setting [2], 4.38 ± 0.13. The corresponding values for LICKYDFIMLSCVQLQRIPLSAVY [TPRG1] are 3.2 ± 0.37 and 3.36 ± 0.83. The corresponding values for ELDLSLSDLNEVPVKELAALPKAT [LRRC59] are 4.4 ± 0.25 and 4.49 ± 0.29. For TSRRPSGTGTGPEDGRPSLGSPYG [PDLIM4], in that order: 4.67 ± 0.21 and 4.67 ± 0.2. KPSENHPLHNSGLLSLDPVQDKTP [MED27] gave a protein stability index under setting [1] of 4.984 ± 0.04 and a protein stability index under setting [2] of 5.02 ± 0.22. For PPLSDPKQAKVVARRESGGRPIKP [BRD3], in that order: 5.21 ± 0.15 and 5.12 ± 0.18. For LAKALLKRTAQAIEPYITNFFNQV [PDS5B], in that order: 2.58 ± 0.71 and 2.7 ± 0.72. For LHPVQKVILNYPSPWDQEERPAQR [TRAF3IP2], in that order: 3.4 ± 0.37 and 3.66 ± 0.34. As to NQLQTKVAVLEQEIKDKDQLVLRT [SASS6], the protein stability index runs as follows: under setting [1], 4.65 ± 0.21; under setting [2], 4.74 ± 0.27. The corresponding values for NAKKLSMYGVDLHHAKDSEGVEIM [EPB41L3] are 3.66 ± 0.8 and 3.61 ± 0.72. In the case of NADGSYLCQCHEGFALNPDKKTCT [MATN2], the protein stability index stood at 4.06 ± 0.14 under setting [1] and 4.2 ± 0.29 under setting [2]. The corresponding values for QMREAFATAFSKLKPESSQQPGQD [ZBED1] are 4.57 ± 0.19 and 4.62 ± 0.094. For SLLLTPQENESLFTFLGKKCVTMS [WASL], in that order: 2.45 ± 0.15 and 2.5 ± 0.4.

Take DDILYHVKGMQRIVNQWSEKFSDE [DLC1]: the protein stability index runs as follows: under setting [1], 3.52 ± 0.14; under setting [2], 3.75 ± 0.28.

RLPFLSAFERQQVENRVVEEAKGL [ZBED1]: the protein stability index runs as follows: under setting [1], 4.17 ± 0.14; under setting [2], 4.2 ± 0.22. Regarding KLFSTYLRPPHTSRGTSQTPNASS [LPCAT4], the protein stability index reads like this: under setting [1], 3.17 ± 0.19; under setting [2], 3.08 ± 0.32. For KSSAQGPIPWFLPESRSLPSSPLR [PPEF2], in that order: 3.56 ± 0.53 and 3.56 ± 0.21. For CLTLTPRPATEAELLTCHSAEYVG [HDAC6], in that order: 3.48 ± 0.16 and 3.43 ± 0.16. The corresponding values for VVEATHMCMVMRGVQKMNSKTVTS [GCH1] are 2.82 ± 0.31 and 3 ± 0.45. As for QPVKTAGEITQHNVTELLRDVAAW [DNAAF3], the protein stability index worked out at 3.73 ± 0.32 under setting [1] and 3.75 ± 0.27 under setting [2]. For YQLPQMPDVVVRSFMTWLRSYIKL [MED27], in that order: 2.01 ± 0.13 and 2.25 ± 0.21. The corresponding values for DTSGFPDLSDNRNEDPLVLLAWRC [FBXO33] are 2.67 ± 0.23 and 3 ± 0.46.
